{"source": "patent US10052415B2", "about": "“Tropoelastin for promoting endothelial cell adhesion or migration” (University of Utah Research Foundation, priority 2005, dated 2018)", "molecules": {"B1": {"name": "tropoelastin: recombinant human tropoelastin lacking native signal sequence, 10× His tag and Factor Xa site on N-terminus, 706 amino acid residues (SEQ ID NO: 4) (protein, listed as Homo sapiens)", "chain": "MGHHHHHHHHHHSSGGIEGRGGVPGAIPGGVPGGVFYPGAGLGALGGGALGPGGKPLKPVPGGLAGAGLGAGLGAFPAVTFPGALVPGGVADAAAAYKAAKAGAGLGGVPGVGGLGVSAGAVVPQPGAGVKPGKVPGVGLPGVYPGGVLPGARFPGVGVLPGVPTGAGVKPKAPGVGGAFAGIPGVGPFGGPQPGVPLGYPIKAPKLPGGYGLPYTTGKLPYGYGPGGVAGAAGKAGYPTGTGVGPQAAAAAAAKAAAKFGAGAAGVLPGVGGAGVPGVPGAIPGIGGIAGVGTPAAAAAAAAAAKAAKYGAAAGLVPGGPGFGPGVVGVPGAGVPGVGVPGAGIPVVPGAGIPGAAVPGVVSPEAAAKAAAKAAKYGARPGVGVGGIPTYGVGAGGFPGFGVGVGGIPGVAGVPGVGGVPGVGGVPGVGISPEAQAAAAAKAAKYGVGTPAAAAAKAAAKAAQFALLNLAGLVPGVGVAPGVGVAPGVGVAPGVGLAPGVGVAPGVGVAPGVGVAPGIGPGGVAAAAKSAAKVAAKAQLRAAAGLGAGIPGLGVGVGVPGLGVGAGVPGLGVGAGVPGFGAVPGALAAAKAAKYGAAVPGVLGGLGALGGVGIPGGVVGAGPAAAAAAAKAAAKAAQFGLVGAAGLGGLGVGGLGVPGVGGLGGIPPAAAAKAAKYGVAARPGFGLSPIFPGGACLGKACGRKRK"}}, "test_system": "A2058 human melanoma cells", "experiment": "Boyden chamber migration assay, A2058 cells", "type": "cell-based", "conditions": "FIG. 5", "description": "Briefly, 16 h before the assay, 70% confluent 75 cm^2 flasks of human melanoma A2058 cell (ATCC, passage 3-12) or human aortic endothelial cells (HAEC; Cambrex, passage 4-7) were kept in basal media (dMEM+0.1% BSA, or EBM-2+1% FCS, respectively). Cells were lifted with 0.25% Trypsin/1 mM EDTA, diluted in 0.5% BSA (dMEM) and washed 3 times in basal media (dMEM+0.1% BSA) or (EBM-2+0.1% FCS,) and recovered in suspension at working density (2×10^6/ml for A2058 or 1.5×10^6 HAEC) for 1 h at 37° C. (5% CO2). For migration-inhibition assays, the cells were preincubated during the recovery period for 30 minutes in 25 μg/ml anti-integrin antibodies (Chemicon, Temecula, Calif.) or control IgG (Jackson ImmunoResearch, Inc.). All migration assays were performed in triplicate in a 48-well Boyden chamber apparatus (NeuroProbe, Cabin John, Md.). The recovered cells were added to the bottom chambers in a volume of 30 μl. The wells were overlayed with an 8 μm-pore polycarbonate membrane (NeuroProbe, Cabin John, Md.) and coated with 100 μg/ml Rat tail collagen (Trevigen, Gaithersburg, Md.) for A2058 cells or acetylated 1% gelatin from porcine skin (Sigma, St. Louis, Mo.) for HAEC. The apparatus was assembled and stored inverted at 37° C. (5 CO2) for a 2 h adhesion-period. […] Readings represent the number of cells migrating through the membrane (the sum of two high power X 20 fields/well, averaged for each sextuplicate-well set).", "data": [{"molecule": "B1", "values": [{"measurement": "level of A2058 migration compared among tropoelastin and fragments", "value": "promoted migration of A2058 cell at comparable levels"}]}]}
